Our source for the Kd values is publication doi:10.1101/2025.02.03.636288.

In the assay the target is MBP-CARD9 (human) (UniProt Q9H257). Nature of the assay: other fluorescence titration.
Sequence of MBP-CARD9 (human) (Q9H257 whole entry): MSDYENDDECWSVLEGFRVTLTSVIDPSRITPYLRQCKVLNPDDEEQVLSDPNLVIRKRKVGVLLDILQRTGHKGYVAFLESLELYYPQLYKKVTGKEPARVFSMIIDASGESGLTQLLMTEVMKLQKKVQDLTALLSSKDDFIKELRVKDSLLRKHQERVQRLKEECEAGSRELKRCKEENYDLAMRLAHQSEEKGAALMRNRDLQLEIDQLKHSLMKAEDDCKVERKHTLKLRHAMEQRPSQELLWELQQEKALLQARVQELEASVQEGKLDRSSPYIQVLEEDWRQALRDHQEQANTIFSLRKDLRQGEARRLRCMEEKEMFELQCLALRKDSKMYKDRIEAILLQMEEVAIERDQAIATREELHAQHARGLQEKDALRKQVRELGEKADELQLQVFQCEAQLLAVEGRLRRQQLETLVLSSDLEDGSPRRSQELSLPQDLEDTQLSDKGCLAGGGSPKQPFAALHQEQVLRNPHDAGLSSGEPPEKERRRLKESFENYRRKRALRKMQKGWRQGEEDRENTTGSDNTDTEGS

On to “CK2 complex (New England Bio, P6010L) (from UniProt P68400 1-391; P67870 1-215)”, for which the dissociation constant Kd is 300 nM.
